Source: PMC4340053, “The DEAH-box Helicase Dhr1 Dissociates U3 from the Pre-rRNA to Promote Formation of the Central Pseudoknot” (PLoS Biology, 2015)
Where a chain is given by its changes, count along the chain named. In names and notes the source's numbering stands.

B1: Dhr1 (Ecm16) (Saccharomyces cerevisiae S288C) (protein)
chain: MGTYRKRFNEKARSGHMAKLKELKRIRNKQFTRQDENDERVENPDSAPAESSTTEPNANAEILEPLTEEEKKMKKRKLQELFTPKESKVSRLKKKRLDKFIEHQLKREERKTIIGKLQDYKIDTSLLTSSKRLGEGRQTKKEEFKEALSLERQGRGNEQTNEILYEEYEPKVWDEYGEGGSSEDDDGEDDFEASFGSMPKPTDNEEKKSSGFIDHRPAKFGGSGLSFGFSNIKVINKESKTPKKKYNWRQRVEMEELKKHGKEDEMDFDTTSEDDDEEEDQEEEDKMHPSENPLEEVESADSETGSEKFDQNDVANEFKDWANQEIKKLEGRDQELVTPTLNIDYKPIIRKEDLDDGLQEAYVPINENSTRKAFYVEVSRSDEIQKARIQLPVFGEEHKIMEAIHHNDVVIICGETGSGKTTQVPQFLYEAGFGAEDSPDYPGMVGITQPRRVAAVSMAERVANELGDHGHKVGYQIRFDSTAKEDTKVKFMTDGVLLREMMHDFKLTKYSSIIIDEAHERNINTDILIGMLSRCVRLRAKLHKENPIEHKKLKLIIMSATLRVSDFSENKTLFPIAPPVLQVDARQFPVSIHFNRRTAFNYTDEAFRKTCKIHQKLPPGAILVFLTGQQEITHMVKRLRKEFPFKKNSKYNKDLETPVSKMGINSKTTDLEAEDIDFSVQVIDQDKFKSAIRYEEDEGNSGNGEDEEDEEEEGFEEVLTEGQTANDPLYVLPLYSLLPTKEQMRVFQKPPQGSRLCIVATNVAETSLTIPGVRYVVDSGRSKERKYNESNGVQSFEVGWVSKASANQRSGRAGRTGPGHCYRLYSSAVFEHDFEQFSKPEILRMPVESIVLQMKSMAIHNIINFPFPTPPDRVALSKAIQLLQYLGALDNKEMITEDGKKMSLFPLSPRFSKMLLVSDEKACLPYIVAIVSALSVGDPFINEFELGINEISRKPNPDENLDDKIREHDESTPGMDPELKKELRSKFYKSRSQFSKLDKFSDVFRLLSVVSAMDYVPKEQKEIFMKKNFLRGKLMEEIVKLRKQLMYIIKSNTSKENIAVVIRNEDLKSDIPSVIQIKLLKQMICAGFVDHVAVRADVLFPDDAKITNRTSIINIPYIPVLATRTPNIEDCFVYIHPTSILNNLGEMPPKYMLYYSLHLGGNNKTRMNTLCDIASTPLANIARKGLLLTYSKPLTGQGLKTVNLSPTERYCYVVPRFGSTVDNDLKIGWDLNPIAVHQKKQKGQWTVIKFITRKGFQTITGEEKEKK
notes: full-length with C-terminal Leu-Glu-6xHis (pAJ2312), tag kept; expressed in E. coli BL21 Star (DE3), RNase-treated, Ni-NTA and SP HiTrap
B2: Dhr1 (Ecm16) (Saccharomyces cerevisiae S288C; K420A) (protein)
chain: B1 chain with K420A
notes: as for B1
B3: Dhr1 (Ecm16) (Saccharomyces cerevisiae S288C; D516A/E517A) (protein)
chain: B1 chain with D516A, E517A
notes: as for B1

Substrate: Nc1ncnc2c1ncn2[C@@H]1O[C@H](COP(=O)(O)OP(=O)(O)OP(=O)(O)O)[C@@H](O)[C@H]1O
Assay: purified protein
Assay type: biochemical, Saccharomyces cerevisiae
Conditions: poly(A) RNA present, equimolar MgCl2, pH 8.0, room temperature

Protein | Km | kcat
B1 | 106 µM | 0.217 s⁻¹
B2 | 1000 µM | 0.05 s⁻¹
B3 | 136 µM | 0.03 s⁻¹
